Consider 39 sequences from the supplement of paper PMC7877785.

This series is described as follows: self-splicing fitness, log relative to wild type (ln ratio); higher = more splicing; Tetrahymena group I intron in knt gene, E. coli kanamycin selection, DiMSum; sequences stand for … in CUCUCU…GGAGGGAAAAGUUAUCAGGCAUGCACCUGGUAGCUAGUCUUUAAACCAAUAGAUUGCAUCGGUUUAAAAGGCAAGACCGUCAAAUUGCGGGAAAGGGGUCAACAGCCGUUCAGUACCAAGUCUCAGGGGAAACUUUGAGAUGGCCUUGCAAAGGGUAUGGUAAUAAGCUGACGGACAUGGUCCUAACCACGCAGCCAAGUCCUAAGUCAACAGAUCUUCUGUUGAUAUGGAUGCAGUUCACAGACUAAAUGUCGGUCGGGGAAGAUGUAUUCUUCUCAUAAGAUAUAGUCGGACCUCUCCUUAAUGGGAGCUAGCGGAUGAAGUGAUGCAACACUGGAGCCGCUGGGAACUAAUUUGUAUGCGAAAGUAUAUUGAUUAGUUUUGGAGUACUCGUGGUCG
In a few lines: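 Six replicate transformations of E. coli BL21(DE3) with a pET-22b(+) library were grown overnight at 37°C or 30°C. The library randomised all eight P1ex-region intron nucleotides, the intron lying in the knt kanamycin-resistance gene, and plates were LB agar with or without 25 μg/mL kanamycin plus 100 μg/mL carbenicillin, 50 μM IPTG and 0.2% rhamnose. Pooled colonies were amplicon-sequenced on an Illumina HiSeq 2500, and fitness is the DiMSum error-weighted combination of wild-type-normalised replicate fold changes, kanamycin versus none.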

± gives the uncertainty stated by the source.

On to UGGAAGCAAUAUUACGCAAG, for which the “self-splicing fitness (ln)” value (37 °C) is -1.83 ± 0.37.
Regarding CGCCAGCAAUAUUACGAGCG, the “self-splicing fitness (ln)” value was -2.66 ± 0.17 (30 °C) and -2.56 ± 0.23 (37 °C).
The like results for AGCAAGCAAUAUUACGCCGC were, in that order, -2.89 ± 0.45 and -2.68 ± 0.45.
The like results for GGGUAGCAAUAUUACGAUUA were, in that order, -0.341 ± 0.13 and -0.00462 ± 0.1.
As for AACGAGCAAUAUUACGCUAA, the “self-splicing fitness (ln)” value by setting is: (30 °C) -3.19 ± 0.35; (37 °C) -2.33 ± 0.16.
As to GCAGAGCAAUAUUACGAACA, where the note is “30 °C”, the “self-splicing fitness (ln)” value is -3.11 ± 0.4.
Regarding CGCAAGCAAUAUUACGACCU, the “self-splicing fitness (ln)” value (30 °C) was -0.793 ± 0.092 and the “self-splicing fitness (ln)” value (37 °C) was -0.711 ± 0.12.
For the sequence AGUCAGCAAUAUUACGCACG, the “self-splicing fitness (ln)” value is, setting by setting: (30 °C) -1.02 ± 0.12; (37 °C) -0.646 ± 0.15.
Consider AACUAGCAAUAUUACGAACA, for which the “self-splicing fitness (ln)” value was -1.12 ± 0.07 (30 °C) and -0.611 ± 0.081 (37 °C).
With CUUAAGCAAUAUUACGAUAU, the “self-splicing fitness (ln)” value runs as follows: (30 °C) -3.29 ± 0.2; (37 °C) -1.4 ± 0.17.
The like results for AUUAAGCAAUAUUACGUCCG were, in that order, -1.47 ± 0.13 and -0.734 ± 0.17.
The like results for GUAGAGCAAUAUUACGCACG were, in that order, -0.718 ± 0.24 and -1.99 ± 0.27.
The like results for UAUCAGCAAUAUUACGGAUG were, in that order, -1.11 ± 0.084 and 0.0808 ± 0.091.
As to GACUAGCAAUAUUACGGGCC, where the note is “37 °C”, the “self-splicing fitness (ln)” value was -2.46 ± 0.41.
As to UGCCAGCAAUAUUACGCCCA, the “self-splicing fitness (ln)” value reads like this: (30 °C) 0.23 ± 0.099; (37 °C) -0.149 ± 0.13.
As to GCACAGCAAUAUUACGAGCC, the “self-splicing fitness (ln)” value reads like this: (30 °C) -3.2 ± 0.28; (37 °C) -2.01 ± 0.23.
The like results for GAUCAGCAAUAUUACGCGCU were, in that order, -1.86 ± 0.12 and -0.35 ± 0.12.
The like results for ACCUAGCAAUAUUACGACCC were, in that order, -0.886 ± 0.2 and -0.637 ± 0.31.
The like results for UUAUAGCAAUAUUACGCUUU were, in that order, -2.99 ± 0.28 and -2.6 ± 0.26.
In the case of GCGAAGCAAUAUUACGUCUG, the “self-splicing fitness (ln)” value runs as follows: (30 °C) -1.68 ± 0.088; (37 °C) -1.81 ± 0.15.
CCCUAGCAAUAUUACGUGAU: the “self-splicing fitness (ln)” value is -2.33 ± 0.076 (30 °C) and -2.27 ± 0.14 (37 °C).
The like results for CUGAAGCAAUAUUACGUGAU were, in that order, -2.7 ± 0.12 and -1.07 ± 0.15.
The like results for AUCAAGCAAUAUUACGAGGA were, in that order, -2.51 ± 0.19 and -2.65 ± 0.26.
The like results for CCAUAGCAAUAUUACGAUUC were, in that order, -3.64 ± 0.25 and -2.89 ± 0.41.
For AUGCAGCAAUAUUACGCAUC, the “self-splicing fitness (ln)” value (37 °C) was -2.67 ± 0.28.
Regarding GAUCAGCAAUAUUACGGGGU, the “self-splicing fitness (ln)” value is -3.13 ± 0.3 (30 °C) and -2.32 ± 0.26 (37 °C).
The like results for AGAAAGCAAUAUUACGUAGC were, in that order, -4.04 ± 0.22 and -2.5 ± 0.2.
Take AUUGAGCAAUAUUACGAAAG: the “self-splicing fitness (ln)” value is -2.69 ± 0.38 (30 °C) and -1.72 ± 0.29 (37 °C).
Turning to CACCAGCAAUAUUACGGUGC, the “self-splicing fitness (ln)” value is -3.89 ± 0.21 (30 °C) and -1.81 ± 0.15 (37 °C).
As to UUGAAGCAAUAUUACGCAUC, the “self-splicing fitness (ln)” value (30 °C) was -3.54 ± 0.33.
For CGUUAGCAAUAUUACGGAUG, the “self-splicing fitness (ln)” value is -1.85 ± 0.11 (30 °C) and -1.37 ± 0.14 (37 °C).
The like results for AGAGAGCAAUAUUACGCUUG were, in that order, -2.97 ± 0.3 and -2.46 ± 0.35.
The like results for ACACAGCAAUAUUACGAUCA were, in that order, -1.39 ± 0.084 and -0.858 ± 0.095.
The like results for AGCUAGCAAUAUUACGGCGC were, in that order, -1.1 ± 0.093 and -0.362 ± 0.14.
For AUGGAGCAAUAUUACGACCU, the “self-splicing fitness (ln)” value was -0.472 ± 0.14 (30 °C) and 0.103 ± 0.18 (37 °C).
The like results for GUUCAGCAAUAUUACGAGAC were, in that order, -1.99 ± 0.4 and -0.261 ± 0.22.
The like results for AAGAAGCAAUAUUACGGAAU were, in that order, -1.67 ± 0.12 and -1.85 ± 0.2.
As for AUCCAGCAAUAUUACGGCCA, the “self-splicing fitness (ln)” value runs as follows: (30 °C) -0.362 ± 0.071; (37 °C) -0.298 ± 0.084.
As for UGACAGCAAUAUUACGGUAG, the “self-splicing fitness (ln)” value by setting is: (30 °C) -0.921 ± 0.067; (37 °C) -0.41 ± 0.074.
